Laboratory results reported in paper PMC6508567 (2018).

B1: serpin Z4 (natural protein)
chain: MATTLATDVRLSIAHQTRFALRLRSAISSNPERAAGNVAFSPLSLHVALSLITAGAAATRDQLVAILGDGGAGDAKELNALAEQVVQFVLANESSTGGPRIAFANGIFVDASLSLKPSFEELAVCQYKAKTQSVDFQHKTLEAVGQVNSWVEQVTTGLIKQILPPGSVDNTTKLILGNALYFKGAWDQKFDESNTKCDSFHLLDGSSIQTQFMSSTKKQYISSSDNLKVLKLPYAKGHDKRQFSMYILLPGAQDGLWSLAKRLSTEPEFIENHIPKQTVEVGRFQLPKFKISYQFEASSLLRALGLQLPFSEEADLSEMVDSSQGLEISHVFHKSFVEVNEEGTEAGAATVAMGVAMSMPLKVDLVDFVANHPFLFLIREDIAGVVVFVGHVTNPLISA
B2: β-amylase WT (enzyme)
chain: MEVNVKGNYVQVYVMLPLDAVSVNNRFEKGDELRAQLRKLVEAGVDGVMVDVWWGLVEGKGPKAYDWSAYKQLFELVQKAGLKLQAIMSFHQCGGNVGDAVNIPIPQWVRDVGTCDPDIFYTDGHGTRNIEYLTLGVDNQPLFHGRSAVQMYADYMTSFRENMKEFLDAGVIVDIEVGLGPAGEMRYPSYPQSHGWSFPGIGEFICYDKYLQADFKAAAAAVGHPEWEFPNDVGQYNDTPERTQFFRDNGTYLSEKGRFFLAWYSNNLIKHGDRILDEANKVFLGYKVQLAIKISGIHWWYKVPSHAAELTAGYYNLHDRDGYRTIARMLKRHRASINFTCAEMRDSEQSSQAMSAPEELVQQVLSAGWREGLNVACENALPRYDPTAYNTILRNARPHGINQSGPPEHKLFGFTYLRLSNQLVEGQNYANFKTFVDRMHANLPRDPYVDPMAPLPRSGPEISIEMILQAAQPKLQPFPFQEHTDLPVGPTGGMGGQAEGPTCGMGGQVKGPTGGMGGQAEDPTSGIGGELPATM

Assays:
β-amylase WT [1] = target: B2; assay: MST; β-amylase labelled, serpin Z4 titrated
β-amylase WT [2] = target: B2; assay: SPR; β-amylase immobilised
serpin Z4 = target: B1; assay: SPR; serpin Z4 immobilised

**Q.** With B1 as the binder, how does the Kd (β-amylase WT [1]) read?
**A.** The Kd was 215 nM.

**Q.** And the koff (β-amylase WT [2])?
**A.** The koff was 0.00263 s⁻¹.

**Q.** B2 was tested. Which koff (serpin Z4) did it give?
**A.** The koff was 0.00243 s⁻¹.
